Read-outs that look alike come from different tables or passages of the source.
B1: SEQID-00690: engineered secreted variant of SEQID-00407 enriched in essential amino acids which retains enzymatic activity (protein, listed as Bacillus subtilis)
chain: ETANKSNELTAPSIKSGTILHAWNWSFNTLKHNMKDIHDAGYTAIQTSPINQVKEGNQGDKSMSNWYWLYQPTSYQIGNRYLGTEQEFKEMCAAAEEYGIKVIVDAVINHTTSDLVGVLSNEVKSIPNWTHGNTQIKNWSDRWDVTQNSLLGLYDWNTQNTQVQSYLKRFLDRALNDGADGFRFDAAKHIELPDDGSYGSQFWPNITRVVMEFQYGEILQDSASRDAAYANYMDVTASNYGHSIRSALKNRNLGVSNIVMYILRVSADKLVTWVESHDTYANDDEESTWMSDDDIRLGWAVIASRSGSTPLFFSRPEGGGNGVRFPGKSQIGDRGSALFEDQAITAVNRFHNVMAGLPKRLSNPNGNNQIFMNQRGSHGVVLANAGSSSVSINTATKLPDGRYDNKAGAGSFQVNDGKLTGTINARSVAVLYPDDIAKAPHVFLENYKTGVTHSFNDQLTITMRADANTTKAVYQINNGPETAFKDGDQFTIGKGDPFGKTYTIMLKGTNSDGVTRTEKYSFVKRDPASAKTIGYQNPNHWSQVNAYIYKHDGSRVIELTGSWPGKPMTKNADGIYTLTLPADTDTTNAKVIFNNGSAQVPGQNQPGFDYVLNGLYNDSGLSGSLPH
modifications: source: /note="strain 168"
B2: Deglycosylated SEQID-00363: SEQID-00363 with mannose glycans reduced enzymatically by alpha mannosidase (protein)
chain: ATLDSWLSNEATVARTAILNNIGADGAWVSGADSGIVVASPSTDNPDYFYTWTRDSGLVLKTLVDLFRNGDTSLLSTIENYISAQAIVQGISNPSGDLSSGAGLGEPKFNVDETAYTGSWGRPQRDGPALRATAMIGFGQWLLDNGYTSTATDIVWPLVRNDLSYVAQYWNQTGYDLWEEVNGSSFFTIAVQHRALVEGSAFATAVGSSCSWCDSQAPEILCYLQSFWTGSFILANFDSSRSGKDANTLLGSIHTFDPEAACDDSTFQPCSPRALANHKEVVDSFRSIYTLNDGLSDSEAVAVGRYPEDTYYNGNPWFLCTLAAAEQLYDALYQWDKQGSLEVTDVSLDFFKALYSDAATGTYSSSSSTYSSIVDAVKTFADGFVSIVETHAASNGSMSEQYDKSDGEQLSARDLTWSYAALLTANNRRNSVVPASWGETSASSVPGTCAATSAIGTYSSVTVTSWPSIVATGGTTTTATPTGSGSVTSTSKTTATASKTSTSTSSTSCTTPTAVAVTFDLTATTTYGENIYLVGSISQLGDWETSDGIALSADKYTSSDPLWYVTVTLPAGESFEYKFIRIESDDSVEWESDPNREYTVPQACGTSTATVTDTWR
modifications: deglycosylated; Aspergillus niger

Assays:
[1] = Intact half-life during simulated gastric fluid (SGF) digestion; settings: SGF pH 1.5, pepsin:polypeptide 1:20 w/w, 37° C.; intact protein
Experimental: (§1) In this experiment the nutritive polypeptide was exposed to a series of proteases that are active in the stomach (pepsin) and intestine (trypsin and chymotrypsin), and the presence of intact protein was measured over time. Specifically, the nutritive polypeptide was first treated at a concentration of 2 g/L with simulated gastric fluid (SGF) (0.03 M NaCl, titrated with HCl to pH 1.5 with a final pepsin:polypeptide ratio of 1:20 w/w) at 37° C. Time points were sampled from the reaction and quenched by addition of 0.2 M Na2CO3. […] Time points were sampled from the reaction and quenched by addition of Trypsin/Chymotrypsin Inhibitor (Sigma) solution until 240 min.
(§2) Time point samples were analyzed for intact protein by chip electrophoresis, polyacrylamide gel electrophoresis, or western blot. For chip electrophoresis (Labchip GX II), samples were analyzed using a HT Low MW Protein Express LabChip® Kit (following the manufacturer's protocol). A protein ladder was loaded every 12 samples for molecular weight determination (kDa) and quantification. For polyacrylamide gel electrophoresis, samples (1 μg) were separated on a NuPAGE® Novex® Bis-Tris Precast gel (Life Technologies) according to the manufacturer's protocol. The gel was stained using SimplyBlue™ SafeStain (Invitrogen) and imaged using a Chemidoc XRS+ (BioRad) or transferred onto nitrocellulose membranes using the iBlot® Dry Blotting System (Life Technologies) and iBlot® Western Detection Kit (Life Technologies) according to the manufacturer's protocol. Proteins were detected by blotting with Anti-His [C-term]-HRP antibody diluted 3:5000 in Blok™-PO Blocking Buffer using the SNAP I.d.® Protein Detection System (Millipore) according to the manufacturer's protocol. Blots were treated with Luminata Classico Western HRP Substrate (Millipore) according to the manufacturer's protocol and imaged using chemiluminescent detection on the Molecular Imager® Gel Doc™ XR+ System (Bio-Rad). Quantification of intact protein was determined by densitometry using ImageLab (BioRad). For all analysis methods the relative concentration of the polypeptide at each time point (if detected) was plotted overtime and fit to an exponential curve to calculate the intact half-life.
(§3) Specifically, the t=0 (enzyme-free control) and t=2 min samples from the SGF digest were analyzed for intact protein as described by chip electrophoresis, SDS-PAGE, western blot, and/or LC-MS/MS. Relative quantities of polypeptides at each time point were determined and the percentage of intact protein remaining at t=2 was determined. Intact half-life values determined using this method are reported as greater or less than 2 min to indicate more or less than 50% of the protein remained intact at t=2 min, respectively.

α-amylase = experiment: Amylase activity assay on starch plates (halo); parameters: species or system Bacillus subtilis
Experimental: SEQID-00407 is an α-amylase in Bacillus subtilis that has the activity of breaking down polysaccharides, such as starch, into monosaccharides or disaccharides. […] If there is enzymatic activity, the secreted enzyme will breakdown the starch and upon staining by iodine, there will be a halo surrounding the Bacillus subtilis colonies. 1% starch plates were made by combining 25 g Luria Broth-Miller, 10 g starch, 15 g bacteriological agar, and 1 L water. 10 mM IPTG was added to the starch plates after the agar has solidified. Single colonies of Bacillus subtilis strains expressing the mutant polypeptides were inoculated in 5 ml LB at 37° C. for 4 hours and 50 μl of the liquid culture were spotted at the center for the starch plates. After 20 hours of growth and induced secretion, 10% iodine was added to the starch plates to stain for starch. When the wild-type enzyme is secreted, it creates a large halo around the cells. […] Table E37A quantifies the area of the halos relative to the area of the cells. […]
SEQID-00407 is an α-amylase in Bacillus subtilis that has the activity of breaking down polysaccharides, such as starch, into monosaccharides or disaccharides. […] Table E38E quantifies the area of the halos relative to the area of the cells.

[2] = rat, in vivo
Experimental: A rat pharmacokinetic study with oral administration of native and modified forms of SEQID-00363 was performed as described herein. The indigestible marker Cobalt-EDTA was formulated at 50 mg/L in the dosed protein solutions to monitor differences in intestinal transit rate between treatment groups and individual rats. Following the final blood collection (at t=4 h) rats were euthanized and the terminal ileum (20 cm of small intestine prior to the cecum) and its contents (the digesta) were collected into a pre-weighed tube. The ileum was flushed with saline and pooled with the digesta. The pH of the digesta was adjusted to ˜3.0 with HCl in order to inactivate all enzymes. The ileum samples were placed into separate pre-weighed 15 mL conical tubes. All samples were flash frozen in liquid nitrogen, and stored at −80° C. until further analysis. Individual ileum and ileum content weights were calculated and recorded for each sample.
A sample of the digesta, which exists as a heterogenous solution containing insoluble particles, was used in the Coomassie Plus Protein Assay, as described herein, to determine protein concentration.

[3] = rat, in vivo, po
Experimental: The boavailability o native and modified forms (ie. deglycosylated and hydrolyzed) of SEQID-00363 was evaluated using the methods described in herein. Briefly, native and modified forms of SEQID-00363 were orally administered to intrajugular-cannulated rats and concentration of free amino acids in plasma samples collected over a 4 h period was determined by HPLC amino acid analysis.

[4] = simulated gi fluid
Experimental: as §1, §2, §3

Pancreatin = assay type: in vitro ADME, Porcine
Experimental: Control samples were protease-free.
Analyses were performed using an Agilent 1100 series system.

Molecule | SGF Half-life (t½) [1] [min] | Halo/Cell (α-amylase; area of halo relative to area of cells) | Halo Area (in^2) (α-amylase; starch plate, iodine stain, 20 hours) | total protein mass in digesta samples [2] [mg] | bioavailability of Leucine and EAAs versus native SEQID-00363 [3] | bioavailability of Serine and Threonine versus native SEQID-00363 [3] | SGF Half-life (t½) [4] [min] | Free Leu (μM) at 120 min time point of Pancreatin digest (Pancreatin) [µM]
B1 | 4.4 | 2.63 | 1.234 |  |  |  |  | 
B2 |  |  |  | 7.7 | did not increase the bioavailability | did increase the bioavailability | 4.3 | 799.2
